Assay results: PMC4691241, “Activation of ULK Kinase and Autophagy by GABARAP Trafficking from the Centrosome Is Regulated by WAC and GM130” (Molecular Cell, 2015)

Legend:
[1] = target: T1, Strep-Tag II-GM130, purified (human, UniProt Q08379 1-1002); experiment: pull-down; purified Strep II-GM130 incubated with recombinant WAC 320–647 before binding to recombinant GST or GST-GABARAP beads, immunoblot; settings: both partners purified
T1 construct: human GM130 isoform 1; also called Strep II-GM130; purified GM130; source: purified
T1 sequence (looked up): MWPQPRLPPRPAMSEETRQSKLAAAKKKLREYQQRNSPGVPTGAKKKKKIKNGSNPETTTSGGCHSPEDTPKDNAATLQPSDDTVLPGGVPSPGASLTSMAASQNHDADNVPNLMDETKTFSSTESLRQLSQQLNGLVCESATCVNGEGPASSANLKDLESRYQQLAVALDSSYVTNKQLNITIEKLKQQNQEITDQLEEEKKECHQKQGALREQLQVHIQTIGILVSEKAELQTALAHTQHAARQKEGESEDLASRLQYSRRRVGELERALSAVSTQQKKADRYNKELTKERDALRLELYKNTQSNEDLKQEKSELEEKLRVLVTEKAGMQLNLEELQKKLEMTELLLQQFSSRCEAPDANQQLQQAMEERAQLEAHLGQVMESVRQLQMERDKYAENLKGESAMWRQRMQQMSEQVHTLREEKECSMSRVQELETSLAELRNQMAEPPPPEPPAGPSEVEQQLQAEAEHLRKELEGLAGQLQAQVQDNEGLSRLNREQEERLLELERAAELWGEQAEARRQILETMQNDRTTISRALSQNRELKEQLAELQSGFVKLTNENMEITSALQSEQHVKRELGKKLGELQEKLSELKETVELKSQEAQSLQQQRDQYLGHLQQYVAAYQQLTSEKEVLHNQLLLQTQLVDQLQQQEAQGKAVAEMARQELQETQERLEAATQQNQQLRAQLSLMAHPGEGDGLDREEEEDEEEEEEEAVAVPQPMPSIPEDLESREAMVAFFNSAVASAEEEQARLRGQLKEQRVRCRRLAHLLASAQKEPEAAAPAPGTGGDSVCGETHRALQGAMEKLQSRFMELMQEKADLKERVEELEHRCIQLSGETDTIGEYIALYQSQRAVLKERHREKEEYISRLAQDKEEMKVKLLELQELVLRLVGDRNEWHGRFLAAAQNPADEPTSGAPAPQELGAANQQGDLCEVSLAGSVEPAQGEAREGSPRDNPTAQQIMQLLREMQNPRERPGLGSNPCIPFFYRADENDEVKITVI

[2] = target: T1, Strep-Tag II-GM130, purified; experiment: pull-down; GST-WAC FL or ΔCC incubated with purified Strep-Tag II-GM130; GST-WAC monitored by Ponceau S; settings: both partners purified

| Binder | binding result [1] | binding result [2] |
| --- | --- | --- |
| recombinant WAC 320–647 (domain or fragment, human, UniProt Q9BTA9 320-647, looked up, human WAC isoform 1, residues 320-647 (the C-terminal half, CT); source: recombinant) TTPSTSSASGLNPTSAPPTSASAVPVSPVPQSPIPPLLQDPNLLRQLLPALQATLQLNNSNVDISKINEVLTAAVTQASLQSIIHKFLTAGPSAFNITSLISQAAQLSTQAQPSNQSPMSLTSDASSPRSYVSPRISTPQTNTVPIKPLISTPPVSSQPKVSTPVVKQGPVSQSATQQPVTADKQQGHEPVSPRSLQRSSSQRSPSPGPNHTSNSSNASNATVVPQNSSARSTCSLTPALAAHFSENLIKHVQGWPADHAEKQASRLREEAHNMGTIHMSEICTELKNLRSLVRVCEIQATLREQRILFLRQQIKELEKLKNQNSFMV | binds |  |
| GST-WAC FL (natural protein, human, UniProt Q9BTA9 1-647, looked up, human WAC isoform 1, full length; also called recombinant GST-WAC; source: recombinant) MVMYARKQQRLSDGCHDRRGDSQPYQALKYSSKSHPSSGDHRHEKMRDAGDPSPPNKMLRRSDSPENKYSDSTGHSKAKNVHTHRVRERDGGTSYSPQENSHNHSALHSSNSHSSNPSNNPSKTSDAPYDSADDWSEHISSSGKKYYYNCRTEVSQWEKPKEWLEREQRQKEANKMAVNSFPKDRDYRREVMQATATSGFASGMEDKHSSDASSLLPQNILSQTSRHNDRDYRLPRAETHSSSTPVQHPIKPVVHPTATPSTVPSSPFTLQSDHQPKKSFDANGASTLSKLPTPTSSVPAQKTERKESTSGDKPVSHSCTTPSTSSASGLNPTSAPPTSASAVPVSPVPQSPIPPLLQDPNLLRQLLPALQATLQLNNSNVDISKINEVLTAAVTQASLQSIIHKFLTAGPSAFNITSLISQAAQLSTQAQPSNQSPMSLTSDASSPRSYVSPRISTPQTNTVPIKPLISTPPVSSQPKVSTPVVKQGPVSQSATQQPVTADKQQGHEPVSPRSLQRSSSQRSPSPGPNHTSNSSNASNATVVPQNSSARSTCSLTPALAAHFSENLIKHVQGWPADHAEKQASRLREEAHNMGTIHMSEICTELKNLRSLVRVCEIQATLREQRILFLRQQIKELEKLKNQNSFMV |  | binds |
